One series deals with T1, FPS1S (Arabidopsis thaliana, UniProt Q09152).
T1 construct: gene FPS1; short isoform, 343 residues, lacking the 41-residue N-terminal extension of FPS1L; cDNA pcNC3; GST fusion in E. coli BL21(DE3), GST removed with Factor Xa leaving no extra residues; homodimer
T1 sequence (Q09152 1-343 isoform Q09152-2): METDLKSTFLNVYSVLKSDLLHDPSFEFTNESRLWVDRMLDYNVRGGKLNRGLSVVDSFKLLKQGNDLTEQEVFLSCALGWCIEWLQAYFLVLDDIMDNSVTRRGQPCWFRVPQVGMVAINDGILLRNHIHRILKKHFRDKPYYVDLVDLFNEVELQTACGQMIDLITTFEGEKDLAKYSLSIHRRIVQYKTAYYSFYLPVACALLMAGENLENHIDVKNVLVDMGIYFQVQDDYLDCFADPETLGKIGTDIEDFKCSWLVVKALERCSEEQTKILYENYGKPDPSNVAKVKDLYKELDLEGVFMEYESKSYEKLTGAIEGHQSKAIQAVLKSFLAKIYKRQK
Put plainly: radiometric [[…]-14C]IPP incorporation, acid hydrolysis and hexane extraction. Format: biochemical. The following applies: product inhibition; FPP 0 to 1 mM; PIPES pH 7.0, 37°C.

A further series deals with T2, FPS2 (Arabidopsis thaliana, UniProt Q43315).
T2 construct: full length, 342 residues; cDNA pcNC2; GST fusion in E. coli BL21(DE3), GST removed with Factor Xa leaving no extra residues; homodimer
T2 sequence (Q43315 1-342): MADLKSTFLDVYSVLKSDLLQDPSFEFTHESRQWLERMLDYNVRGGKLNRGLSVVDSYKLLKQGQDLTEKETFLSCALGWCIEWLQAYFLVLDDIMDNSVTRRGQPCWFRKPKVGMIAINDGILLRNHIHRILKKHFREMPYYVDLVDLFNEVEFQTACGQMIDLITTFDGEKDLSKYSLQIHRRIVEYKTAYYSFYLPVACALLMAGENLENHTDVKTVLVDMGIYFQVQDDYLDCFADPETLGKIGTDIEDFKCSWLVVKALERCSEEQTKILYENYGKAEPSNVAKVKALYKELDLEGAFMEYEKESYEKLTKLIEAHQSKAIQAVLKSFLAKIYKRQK
The description is as above. The series is classed as biochemical. The conditions noted are these: product inhibition; FPP 0 to 1 mM; PIPES pH 7.0, 37°C.

Substrate in series [1]: C=C(C)CCO[P@@](=O)(O)OP(=O)(O)O
Put plainly: purified protein. The following applies: 200 µM DMAPP, 4 mM MgCl2, PIPES pH 7.0, 37°C, labelled compound, apparent Km, kcat per dimer.

Substrate in series [2]: CC(C)=CCC/C(C)=C/COP(=O)(O)OP(=O)(O)O
The experiment in a line: purified protein. Format: biochemical, Arabidopsis thaliana. The conditions noted are these: 100 µM IPP, 4 mM MgCl2, PIPES pH 7.0, 37°C, apparent Km, kcat per dimer.

Substrate in series [3]: CC(C)=CCOP(=O)(O)OP(=O)(O)O
Put plainly: purified protein. Format: biochemical, Arabidopsis thaliana. The conditions noted are these: 100 µM IPP, 4 mM MgCl2, PIPES pH 7.0, 37°C, apparent Km, kcat per dimer.

Turning to `CC(C)=CCC/C(C)=C/CC/C(C)=C/COP(=O)(O)OP(=O)(O)O` [FPP], the “% reduction of activity at 1 mM” value on FPS1S and at FPS2 was ~ 30% throughout.

B1: FPS1S (Arabidopsis thaliana) (protein)
chain: METDLKSTFLNVYSVLKSDLLHDPSFEFTNESRLWVDRMLDYNVRGGKLNRGLSVVDSFKLLKQGNDLTEQEVFLSCALGWCIEWLQAYFLVLDDIMDNSVTRRGQPCWFRVPQVGMVAINDGILLRNHIHRILKKHFRDKPYYVDLVDLFNEVELQTACGQMIDLITTFEGEKDLAKYSLSIHRRIVQYKTAYYSFYLPVACALLMAGENLENHIDVKNVLVDMGIYFQVQDDYLDCFADPETLGKIGTDIEDFKCSWLVVKALERCSEEQTKILYENYGKPDPSNVAKVKDLYKELDLEGVFMEYESKSYEKLTGAIEGHQSKAIQAVLKSFLAKIYKRQK
notes: short isoform, 343 residues, lacking the 41-residue N-terminal extension of FPS1L; cDNA pcNC3; GST fusion in E. coli BL21(DE3), GST removed with Factor Xa leaving no extra residues; homodimer
Take B1: the Michaelis constant (Km) in “purified protein [1]” is 23.1 ± 0.4 µM; in the series “purified protein [2]”, 8.3 ± 1.2 µM; in “purified protein [3]”, 22.7 ± 2.1 µM. The results for the catalytic constant (kcat) in the series “purified protein [1]”, in the series “purified protein [2]” and in “purified protein [3]” were 1.04 s⁻¹, 0.607 s⁻¹ and 0.87 s⁻¹, respectively. For the same molecule, the kcat/Km in the series “purified protein [1]” amounted to 45000 M⁻¹ s⁻¹; in the series “purified protein [2]”, 73300 M⁻¹ s⁻¹; in “purified protein [3]”, 38300 M⁻¹ s⁻¹.

B2: FPS2 (Arabidopsis thaliana) (protein)
chain: MADLKSTFLDVYSVLKSDLLQDPSFEFTHESRQWLERMLDYNVRGGKLNRGLSVVDSYKLLKQGQDLTEKETFLSCALGWCIEWLQAYFLVLDDIMDNSVTRRGQPCWFRKPKVGMIAINDGILLRNHIHRILKKHFREMPYYVDLVDLFNEVEFQTACGQMIDLITTFDGEKDLSKYSLQIHRRIVEYKTAYYSFYLPVACALLMAGENLENHTDVKTVLVDMGIYFQVQDDYLDCFADPETLGKIGTDIEDFKCSWLVVKALERCSEEQTKILYENYGKAEPSNVAKVKALYKELDLEGAFMEYEKESYEKLTKLIEAHQSKAIQAVLKSFLAKIYKRQK
notes: full length, 342 residues; cDNA pcNC2; GST fusion in E. coli BL21(DE3), GST removed with Factor Xa leaving no extra residues; homodimer
Turning to B2, in “purified protein [1]”, the Michaelis-Menten constant (Km) worked out at 31.3 ± 0.5 µM, the kcat was 4.48 s⁻¹ and the kcat/Km is 143000 M⁻¹ s⁻¹. Besides, in the series “purified protein [2]”, the Michaelis constant (Km) worked out at 11.3 ± 1.0 µM, the turnover number (kcat) was found to be 2.21 s⁻¹ and the kcat/Km was 195000 M⁻¹ s⁻¹. Further, in “purified protein [3]”, the Km turned out to be 31.5 ± 0.5 µM, the kcat was 3.29 s⁻¹ and the kcat/Km was 103000 M⁻¹ s⁻¹.

A word on the Km: it is the substrate concentration at which the rate is half of its maximum. In general, kcat refers to the number of substrate molecules converted per active site and unit of time at saturation. As a reminder, the kcat/Km is the turnover number divided by the Michaelis constant.

The values above are taken from paper PMC3492304, “Characterization of Arabidopsis FPS Isozymes and FPS Gene Expression Analysis Provide Insight into the Biosynthesis of Isoprenoid Precursors in Seeds” (PLoS ONE, 2012).
